Source: patent US20250346644A1 (LATTICON SUZHOU BIOPHARMACEUTICALS, published 2025)
Residue numbers refer to the chain shown, from its start. Numbers in names are those of the source. Read-outs that look alike come from different tables or passages of the source. Each block holds one binder with its values, some of them ahead of it.

Columns and labels:
[1] = molecular target: T1, hIL2Rα/β/γ complex (human, UniProt P01589 22-213; P14784 27-239; P31785 23-254); test: BLI (ForteBio): biotin-CD25 on an SA sensor, CD122 step, then sample together with CD132
T1 construct: assembled in the BLI assay from bought subunits; also called hIL2Rα/o/γ complex
T1 sequence (looked up) 1: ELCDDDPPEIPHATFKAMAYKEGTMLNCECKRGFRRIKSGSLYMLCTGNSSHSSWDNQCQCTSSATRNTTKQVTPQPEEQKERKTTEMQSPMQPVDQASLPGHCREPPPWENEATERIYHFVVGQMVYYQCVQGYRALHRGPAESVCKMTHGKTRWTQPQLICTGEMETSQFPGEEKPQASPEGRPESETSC
T1 sequence (looked up) 2: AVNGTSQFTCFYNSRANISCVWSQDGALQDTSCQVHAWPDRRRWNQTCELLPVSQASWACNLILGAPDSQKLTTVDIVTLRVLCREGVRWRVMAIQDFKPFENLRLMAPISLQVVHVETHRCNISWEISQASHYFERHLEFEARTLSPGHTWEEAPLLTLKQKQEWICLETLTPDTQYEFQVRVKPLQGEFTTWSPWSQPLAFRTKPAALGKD
T1 sequence (looked up) 3: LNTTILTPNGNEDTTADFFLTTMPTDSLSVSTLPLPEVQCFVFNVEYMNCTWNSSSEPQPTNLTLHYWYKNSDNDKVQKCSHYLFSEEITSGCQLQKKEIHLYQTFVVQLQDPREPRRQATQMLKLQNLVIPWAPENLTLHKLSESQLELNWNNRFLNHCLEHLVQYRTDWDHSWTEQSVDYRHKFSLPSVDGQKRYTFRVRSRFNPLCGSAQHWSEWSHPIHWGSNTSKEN
Method: (§1) The specific method was described as follows: biotin-CD25 (Acro) was diluted in 1×PBS to 5 μg/mL and added to a 96-well black-wall plate at 200 μL per well; hIL2Rβ (Acro) was diluted to 5 μg/mL in 1×PBS and also added to the 96-well black-wall plate at 200 μL per well. […] The 96-well black-wall plate containing the testing samples and a SA sensor was uploaded onto the analyzer, and a program was inputted. The SA sensor was firstly immersed into the well with biotin-CD25 (Acro) and then with hIL2Rβ (Acro) till saturation. After that, the sensor was immersed in the testing sample well and the binding signal was recorded in real-time. At the end of each association-dissociation cycle, the sensor was regenerated by immersing in 500 mM phosphate buffer and then started with the next cycle of detection.

[2] = molecular target: T2, high-affinity IL2R expressed on the surface of CTLL-2 cells; test: cell-based or functional assay
T2 sequence (P01590 whole entry, species assumed, looked up): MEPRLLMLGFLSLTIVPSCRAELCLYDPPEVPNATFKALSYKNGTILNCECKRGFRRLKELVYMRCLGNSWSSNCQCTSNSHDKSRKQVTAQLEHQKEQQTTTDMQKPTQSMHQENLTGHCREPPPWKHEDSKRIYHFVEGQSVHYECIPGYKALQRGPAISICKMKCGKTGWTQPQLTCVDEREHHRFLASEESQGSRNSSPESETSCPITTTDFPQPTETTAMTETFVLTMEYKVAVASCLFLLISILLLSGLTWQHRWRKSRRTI
T2 sequence (P16297 whole entry, species assumed, looked up): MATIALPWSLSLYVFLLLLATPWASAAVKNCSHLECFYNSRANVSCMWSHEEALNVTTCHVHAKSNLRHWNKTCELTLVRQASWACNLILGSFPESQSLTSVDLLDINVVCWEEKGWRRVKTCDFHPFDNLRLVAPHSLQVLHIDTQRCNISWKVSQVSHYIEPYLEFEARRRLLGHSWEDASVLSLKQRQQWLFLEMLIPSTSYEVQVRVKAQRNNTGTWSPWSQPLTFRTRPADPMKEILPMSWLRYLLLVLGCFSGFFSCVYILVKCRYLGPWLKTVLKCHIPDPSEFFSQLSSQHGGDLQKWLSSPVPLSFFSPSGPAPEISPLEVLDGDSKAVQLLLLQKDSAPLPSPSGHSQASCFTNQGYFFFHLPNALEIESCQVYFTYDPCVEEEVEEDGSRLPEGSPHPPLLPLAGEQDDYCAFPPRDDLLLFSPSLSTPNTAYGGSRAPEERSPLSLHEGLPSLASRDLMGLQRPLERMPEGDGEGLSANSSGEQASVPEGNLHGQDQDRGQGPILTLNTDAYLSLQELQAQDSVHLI
T2 sequence (P34902 whole entry, species assumed, looked up): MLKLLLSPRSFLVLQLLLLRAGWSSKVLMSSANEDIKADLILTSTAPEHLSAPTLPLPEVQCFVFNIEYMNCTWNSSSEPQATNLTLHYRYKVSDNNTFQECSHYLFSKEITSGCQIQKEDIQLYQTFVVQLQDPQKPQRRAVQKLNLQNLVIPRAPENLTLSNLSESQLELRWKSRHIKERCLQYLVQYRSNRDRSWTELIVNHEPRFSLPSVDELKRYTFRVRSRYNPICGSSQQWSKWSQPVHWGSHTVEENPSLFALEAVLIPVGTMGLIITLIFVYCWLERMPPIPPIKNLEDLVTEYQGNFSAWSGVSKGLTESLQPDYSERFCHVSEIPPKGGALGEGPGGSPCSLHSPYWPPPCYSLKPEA

[3] = molecular target: T3, hIL2Rβ/γ on CD25-knockout NK-92 cells (human, UniProt P14784 27-551; P31785 23-369); test: cell-based or functional assay
T3 sequence (looked up) 1: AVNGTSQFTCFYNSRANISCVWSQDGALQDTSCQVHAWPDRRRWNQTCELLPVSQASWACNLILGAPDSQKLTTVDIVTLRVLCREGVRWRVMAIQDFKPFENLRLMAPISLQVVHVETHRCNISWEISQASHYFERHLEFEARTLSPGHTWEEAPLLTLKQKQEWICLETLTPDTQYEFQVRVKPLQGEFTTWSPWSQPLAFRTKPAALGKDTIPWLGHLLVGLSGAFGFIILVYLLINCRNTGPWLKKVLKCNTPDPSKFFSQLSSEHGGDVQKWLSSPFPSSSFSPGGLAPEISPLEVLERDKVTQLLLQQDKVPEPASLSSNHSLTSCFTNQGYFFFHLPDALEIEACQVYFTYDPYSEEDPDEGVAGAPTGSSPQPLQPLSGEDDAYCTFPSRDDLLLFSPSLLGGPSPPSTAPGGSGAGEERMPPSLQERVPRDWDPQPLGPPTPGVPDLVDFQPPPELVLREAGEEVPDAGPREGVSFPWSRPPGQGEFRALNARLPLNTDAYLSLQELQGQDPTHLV
T3 sequence (looked up) 2: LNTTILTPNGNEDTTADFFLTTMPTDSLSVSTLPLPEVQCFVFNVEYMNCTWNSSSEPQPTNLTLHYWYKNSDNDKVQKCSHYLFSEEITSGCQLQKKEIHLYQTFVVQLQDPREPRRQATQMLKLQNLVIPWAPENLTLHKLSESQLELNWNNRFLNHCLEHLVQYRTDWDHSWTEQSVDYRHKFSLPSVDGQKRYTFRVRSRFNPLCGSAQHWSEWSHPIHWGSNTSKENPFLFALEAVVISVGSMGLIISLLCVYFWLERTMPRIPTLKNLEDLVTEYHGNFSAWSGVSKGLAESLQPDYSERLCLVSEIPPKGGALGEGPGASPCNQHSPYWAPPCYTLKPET

[4] = molecular target: T4, hIL2Rα (hCD25) (human, UniProt P01589 22-213, limits assumed); test: BLI (ForteBio): biotin-CD25 on an SA sensor, buffer step, then sample
T4 construct: bought recombinant protein; also called hCD25 (Acro); biotin-CD25 (Acro)
T4 sequence (looked up): T1 sequence (looked up) 1

[5] = molecular target: T5, hIL2Rα/β complex (human, UniProt P01589 22-213; P14784 27-239); test: BLI (ForteBio): biotin-CD25 on an SA sensor, CD122 step, then sample together with CD122
T5 construct: assembled in the BLI assay from bought subunits; also called hIL2Rα/O complex
T5 sequence (looked up) 1: T1 sequence (looked up) 1
T5 sequence (looked up) 2: T1 sequence (looked up) 2
Method: as §1

[6] = molecular target: T2, high-affinity IL2R expressed on the …; test: cell-based or functional assay; remark: listed apart in the source
[7] = molecular target: T4, hIL2Rα (hCD25); test: ELISA (method of section 4.2.1): sample captured on coated goat anti-human IgG, hCD25 titrated; the x axis is the CD25 concentration
[8] = molecular target: T6, hIL2Rβ (hCD122) (human, UniProt P14784 27-239, limits assumed); test: ELISA (method of section 4.2.1): sample captured on coated goat anti-human IgG, hCD122 titrated; the x axis is the CD122 concentration
T6 construct: bought recombinant protein; also called hCD122 (Acro)
T6 sequence (looked up): T1 sequence (looked up) 2

[9] = molecular target: T5, hIL2Rα/β complex; test: BLI (ForteBio): biotin-CD25 on an SA sensor, CD122 step, then sample (100 nM by the text) together with CD122
Method: as §1

[10] = molecular target: T1, hIL2Rα/β/γ complex; test: BLI (ForteBio): biotin-CD25 on an SA sensor, CD122 step, then sample (100 nM by the text) together with CD132
Method: as §1

[11] = molecular target: T4, hIL2Rα (hCD25); test: BLI (ForteBio): biotin-CD25 on an SA sensor, buffer step, then sample (100 nM by the text)

binding result [1]: no binding
Activity in Promoting CTLL-2 Cell Proliferation (EC50, nM) [2]: 9.17 nM
Activity in Promoting NK-92 (CD25-KO) Cell Proliferation (EC50, nM) [3]: 0.065 nM
binding result [4]: no binding
binding result [5]: no binding
Activity in Promoting CTLL-2 Cell Proliferation (EC50, nM) [6]: 11.2 nM
B1: K2G11-Cy05 (other)
chain: SSSTKKTQLQLEHLLLDLQMILNGINNYKNPKLTRMLTFKFYMPKKATELKHLQCLEEELGPLEEVLNLAQSKNFHLRPRDLISNIRVIVLELKGSETCFMCEYADETATIVEFLNRWITFLQSIISTLTGGGGSGGGGSGGGGSGGGGSQVQLVQSGAEVKKPGATVKISCKVSGDTITAYYMHWVRQAPGQGLEWIGRIDPDDDSTKYAENFKGRVTITADTSTDTAYMELSSLRSEDTAVYYCTTITFLYSRELRWFAYWGQGTLVTVSSASTKGPSVFPLAPSSKSTSGGTAALGCLVKDYFPEPVTVSWNSGALTSGVHTFPAVLQSSGLYSLSSVVTVPSSSLGTQTYICNVDHKPSNTKVDKRVEPKSCDKTHTCPPCPAPEFEGGPSVFLFPPKPKDTLMISRTPEVTCVVVDVSHEDPEVQFNWYVDGVEVHNAKTKPREEQYNSTYRVVSVLTVLHQDWLNGKEYKCKVSNKALPASIEKTISKAKGQPREPQVYTLPPSRDELTKNQVSLTCLVKGFYPSDIAVEWESNGQPENNYKTTPPVLDSDGSFFLYSKLTVDKSRWQEGNVFSCSVMHEALHNHYTQKSLSLSPGK
VL: DIVLTQSPATLSLSPGERATLSCQASQYISNYLSWYQQKPGQAPRLLIYSATSLASGIPARFSGSRCGTDFTLTISSLEPEDFAVYYCLQHYSTPYTFGQGTKLEIK
modifications: Engineered disulfide between chain 1 Cys99 (IL-2 T102C) and chain 2 Cys67 (S67C), as in Table 32 (LC: C67-HC: C99).
notes: hIL2-DM (Δ3, C125L) fused to the heavy chain of K2G11, disulfide IL:102-L:67

binding result [7]: no binding (tested: 10 µg/mL)
binding result [8]: binds
Activity in Promoting CTLL-2 Cell Proliferation (EC50, nM) [6]: 5.77 nM
B2: K2G11-Cy06 (other)
heavy: SSSTKKTQLQLEHLLLDLQMILNGINNYKNPKLTRMLTFKFYMPKKATELKHLQCLEEELGPLEEVLNLAQSKNFHLRPRDLISNIRVIVLELKGSETCFMCEYADETATIVEFLNRWITFLQSIISTLTGGGGSGGGGSGGGGSGGGGSQVQLVQSGAEVKKPGATVKISCKVSGDTITAYYMHWVRQAPGQGLEWIGRIDPDDDSTKYAENFKGRVTITADTSTDTAYMELSSLRSEDTAVYYCTTITFLYSRELRWFAYWGQGTLVTVSS
VL: B1 VL with C67S, G68C
notes: hIL2-DM (Δ3, C125L) fused to the heavy chain of K2G11, disulfide IL:102-L:68

binding result [9]: binds
binding result [10]: binds
binding result [11]: binds
Activity in Promoting CTLL-2 Cell Proliferation (EC50, nM) [6]: 0.156 nM
B3: hIL2-DM (Δ3, C125L) (ligand)
chain: SSSTKKTQLQLEHLLLDLQMILNGINNYKNPKLTRMLTFKFYMPKKATELKHLQCLEEELGPLEEVLNLAQSKNFHLRPRDLISNIRVIVLELKGSETTFMCEYADETATIVEFLNRWITFLQSIISTLT
notes: first three N-terminal residues (APT) deleted; also called hIL2-DM (Δ3, 125L); hIL2-DM (Δ3, C125L) mutein
